According to the supplement of paper PMC10126150:
± gives the standard deviation of the averaged measurements.

Test system: ATP
Assay: switch fluorescence ratio, 500 uM ATP over buffer (Cy3 cluster intensity, sum of 5 cycles each) (fold (ratio)); higher = stronger signal-on switching upon ATP binding; sequences stand for … in TCGTCGGCAGCGTCAGATGTGTATAAGAGACAGTTTTTTTTTTTTTTTTTTTTTTTTT…TC
Details: aptamer strand: ATP DNA aptamer (quencher-CACCTGGGGGAGTATTGCGGAGGAAGG + anchor), 100 nM annealed; ATP concentration: 500 uM
Method in brief: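 The fluorescence ratio divides summed target-cycle Cy3 intensity by summed buffer-cycle Cy3 intensity for each cluster and is averaged per switch-domain sequence. Cy3-labelled switching-strand clusters on a modified Illumina MiSeq flow-cell were annealed to 100 nM quencher-labelled ATP aptamer, then imaged in selection buffer and again after 15 min with 500 uM ATP at 22 °C. Five such cycles were run, with NaOH stripping and re-annealing between them, and clusters outside 100-1000 RFU were excluded.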
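Further: ATP exposure 15 min at 22 °C before imaging.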

Row | Sequence | switch fluorescence ratio
1 | AAATTGGGGG | 1.02 ± 0.075
2 | AAATTGGGTG | 1.02 ± 0.048
3 | AAATTGGTTG | 0.976 ± 0.014
4 | AAATTGGTTT | 0.995 ± 0.032
5 | AAATTGTAAA | 0.969 ± 0.051
6 | AAATTGTAAT | 1.02 ± 0.041
7 | AAATTGTATT | 1 ± 0.024
8 | AAATTGTTTT | 1.01 ± 0.019
9 | AAATTTAATG | 0.961 ± 0.016
10 | AAATTTACAT | 1.002 ± 0.0034
11 | AAATTTAGCT | 1.0313 ± 0.0006
12 | AAATTTATAA | 0.984 ± 0.044
13 | AAATTTATGT | 0.972 ± 0.027
14 | AAATTTCTTA | 1 ± 0.026
15 | AAATTTTGTT | 0.987 ± 0.021
16 | AACAAATGAT | 1.007 ± 0.0024
17 | AACAACCATT | 1.05 ± 0.051
18 | AACAAGTTAG | 1.01 ± 0.015
19 | AACAATATTG | 1.02 ± 0.028
20 | AACAATGCTA | 1.05 ± 0.026
21 | AACAATTCTG | 1.01 ± 0.012
22 | AACACAAGGT | 1.02 ± 0.017
23 | AACACGTATA | 1.227 ± 0.0097
24 | AACAGAAAGG | 0.982 ± 0.045
25 | AACAGAAATA | 1.01 ± 0.021

Row | Sequence | switch fluorescence ratio
26 | AACAGAGTTA | 1.02 ± 0.013
27 | AACAGGACTG | 1 ± 0.036
28 | AACAGGCGAT | 0.985 ± 0.034
29 | AACAGGTACT | 1.074 ± 0.0094
30 | AACAGTAGCA | 1.03 ± 0.019
31 | AACATAGGTG | 1.14 ± 0.056
32 | AACATGGGGC | 1.02 ± 0.041
33 | AACATTGTGG | 1.017 ± 0.0063
34 | AACATTTAGC | 1.01 ± 0.039
35 | AACATTTCTT | 0.976 ± 0.045
36 | AACATTTTGC | 0.9941 ± 0.0069
37 | AACATTTTTT | 0.99 ± 0.019
38 | AACCACGTTA | 1.09 ± 0.053
39 | AACCACTGGG | 1.17 ± 0.13
40 | AACCAGCACC | 1.0991 ± 0.00048
41 | AACCATACGT | 1.29 ± 0.032
42 | AACCCGCACC | 2.75 ± 0.12
43 | AACCCGCCTT | 1.07 ± 0.067
44 | AACCGAAGAC | 2.15 ± 0.075
45 | AACCGGGGGG | 0.994 ± 0.045
46 | AACCGGTATT | 0.9752 ± 0.0059
47 | AACCTATGCT | 1.012 ± 0.0018
48 | AACCTCATGC | 1.17 ± 0.086
49 | AACCTCGTCT | 1.07 ± 0.039
50 | AACCTCTATT | 1.03 ± 0.015

Row | Sequence | switch fluorescence ratio
51 | AACCTGCGGA | 1.02 ± 0.011
52 | AACCTGGTCG | 1.069 ± 0.0046
53 | AACCTTTCTG | 1.5 ± 0.021
54 | AACGAAAAGT | 0.996 ± 0.012
55 | AACGAATTAC | 1.79 ± 0.16
56 | AACGAGGCAG | 1.21 ± 0.038
57 | AACGATGTAA | 0.9951 ± 0.0059
58 | AACGATTGGC | 1.08 ± 0.018
59 | AACGCACGTT | 1.28 ± 0.02
60 | AACGCGTGGT | 1.01 ± 0.02
61 | AACGCTATGT | 1.05 ± 0.023
62 | AACGCTGAGG | 1.01 ± 0.009
63 | AACGCTTATT | 1.09 ± 0.064
64 | AACGGACAGG | 1.27 ± 0.049
65 | AACGGGAAGA | 1.02 ± 0.028
66 | AACGGGAGAC | 2.52 ± 0.24
67 | AACGGGCCCG | 1 ± 0.04
68 | AACGGGCGGG | 1.15 ± 0.014
69 | AACGGGCTGG | 0.996 ± 0.04
70 | AACGGGGGCT | 0.9778 ± 0.006
71 | AACGGGGGGG | 1.05 ± 0.037
72 | AACGGGGGTC | 1 ± 0.043
73 | AACGGGGGTG | 1.01 ± 0.045
74 | AACGGGGTGG | 0.976 ± 0.044
75 | AACGGGTCTG | 1.01 ± 0.039

Row | Sequence | switch fluorescence ratio
76 | AACGGGTTAC | 1.14 ± 0.019
77 | AACGGTAATT | 1.1 ± 0.034
78 | AACGGTACGG | 1.03 ± 0.045
79 | AACGGTATTC | 1.07 ± 0.043
80 | AACGGTTTCC | 1.02 ± 0.038
81 | AACGTACAGG | 1.65 ± 0.15
82 | AACGTACTGG | 1.52 ± 0.095
83 | AACGTAGGAC | 1.1 ± 0.014
84 | AACGTTCGCG | 1.03 ± 0.032
85 | AACGTTGGGG | 0.967 ± 0.017
86 | AACGTTTGCG | 0.986 ± 0.017
87 | AACGTTTGTT | 1.14 ± 0.23
88 | AACTAGGAGG | 0.983 ± 0.012
89 | AACTAGGATA | 1.01 ± 0.02
90 | AACTATTATG | 1.003 ± 0.01
91 | AACTATTGAA | 1.003 ± 0.0077
92 | AACTATTGCG | 0.988 ± 0.019
93 | AACTATTGTA | 1.01 ± 0.022
94 | AACTATTTGT | 0.978 ± 0.015
95 | AACTGAGTAG | 1.01 ± 0.015
96 | AACTGTTCTG | 1.01 ± 0.014
97 | AACTGTTGGT | 0.978 ± 0.025
98 | AACTTAAATT | 1.01 ± 0.021
99 | AACTTATGTC | 0.9738 ± 0.0069
100 | AACTTCAGGC | 1.05 ± 0.041

Row | Sequence | switch fluorescence ratio
101 | AACTTCCGCA | 1.29 ± 0.038
102 | AACTTGAGAA | 1.01 ± 0.012
103 | AACTTGATAT | 0.9835 ± 0.0019
104 | AACTTGGACC | 1.05 ± 0.035
105 | AACTTTAGTA | 1 ± 0.016
106 | AACTTTTATT | 1.01 ± 0.015
107 | AACTTTTCTA | 0.976 ± 0.017
108 | AACTTTTTTT | 0.98236 ± 0.00064
109 | AAGAAAAATT | 0.9725 ± 0.0048
110 | AAGAAACGGG | 1.025 ± 0.008
111 | AAGAAAGACT | 1.02 ± 0.013
112 | AAGAAATTAA | 1.01 ± 0.045
113 | AAGAAATTTT | 0.984 ± 0.012
114 | AAGAAGAGGA | 1 ± 0.011
115 | AAGAAGATTT | 1 ± 0.012
116 | AAGAATGACT | 0.977 ± 0.014
117 | AAGAATTGTG | 0.992 ± 0.032
118 | AAGAATTTTG | 0.999 ± 0.027
119 | AAGACACAGA | 1.06 ± 0.035
120 | AAGACCGGCA | 1.01 ± 0.038
121 | AAGAGAACGG | 1.04 ± 0.091
122 | AAGAGAAGCC | 1.02 ± 0.078
123 | AAGAGAGGGA | 0.981 ± 0.041
124 | AAGAGAGGGG | 1.02 ± 0.029
125 | AAGAGATATG | 1.02 ± 0.059

Row | Sequence | switch fluorescence ratio
126 | AAGAGATTTT | 0.986 ± 0.012
127 | AAGAGGATG | 0.977 ± 0.023
128 | AAGAGGCATG | 0.971 ± 0.07
129 | AAGAGGCCGG | 0.986 ± 0.031
130 | AAGAGGGGTA | 0.999 ± 0.018
131 | AAGAGGGTGG | 0.997 ± 0.02
132 | AAGAGGGTTT | 1.01 ± 0.05
133 | AAGAGGTCAG | 1.033 ± 0.0016
134 | AAGAGTAGGA | 0.989 ± 0.0099
135 | AAGAGTATAA | 0.985 ± 0.04
136 | AAGAGTCTTT | 1.01 ± 0.017
137 | AAGAGTGGGA | 1.03 ± 0.011
138 | AAGAGTGGTG | 0.988 ± 0.015
139 | AAGATCACTG | 1.06 ± 0.068
140 | AAGATCGGGG | 0.972 ± 0.049
141 | AAGATGAGGT | 1.01 ± 0.021
142 | AAGATGCTTC | 1 ± 0.011
143 | AAGATGGGGT | 0.991 ± 0.017
144 | AAGATGTAGT | 0.994 ± 0.017
145 | AAGATGTATT | 0.9561 ± 0.0015
146 | AAGATTAGGT | 1 ± 0.059
147 | AAGATTTCGT | 1 ± 0.044
148 | AAGCACCGGG | 1.08 ± 0.085
149 | AAGCACTAGG | 1.1916 ± 0.0011
150 | AAGCAGGGGG | 0.995 ± 0.018

Row | Sequence | switch fluorescence ratio
151 | AAGCAGGTGG | 1.052 ± 0.0096
152 | AAGCATCTAC | 2.08 ± 0.32
153 | AAGCATTTGT | 0.9976 ± 0.0089
154 | AAGCCAAATG | 0.994 ± 0.029
155 | AAGCCAAGAG | 1.05 ± 0.027
156 | AAGCCAGCTC | 1.02 ± 0.037
157 | AAGCCGAGGG | 1.017 ± 0.0022
158 | AAGCCGATCT | 0.974 ± 0.046
159 | AAGCCGGGAT | 1.02 ± 0.016
160 | AAGCCTGAGG | 1.015 ± 0.0084
161 | AAGCCTTTTT | 1.01 ± 0.019
162 | AAGCGAGCCG | 1.02 ± 0.091
163 | AAGCGAGGTT | 0.991 ± 0.021
164 | AAGCGCATTT | 1.05 ± 0.029
165 | AAGCGGGTCG | 1.03 ± 0.049
166 | AAGCGGTTCG | 0.98939 ± 0.0009
167 | AAGCGGTTTT | 1 ± 0.019
168 | AAGCGTGAGG | 1.04 ± 0.047
169 | AAGCGTGTGG | 1 ± 0.036
170 | AAGCTAATGT | 1.061 ± 0.0089
171 | AAGCTACTGG | 1.0513 ± 0.00024
172 | AAGCTCTTGA | 1 ± 0.04
173 | AAGCTGGTGT | 1.014 ± 0.0075
174 | AAGCTGTGCA | 0.99 ± 0.038
175 | AAGCTGTTAT | 1.16 ± 0.29

Row | Sequence | switch fluorescence ratio
176 | AAGCTTCTGT | 1.023 ± 0.0057
177 | AAGCTTTCGG | 1.03 ± 0.016
178 | AAGGAAAGAT | 0.975 ± 0.04
179 | AAGGAAATGG | 1.01 ± 0.035
180 | AAGGACAAGA | 1.02 ± 0.00092
181 | AAGGACATTA | 1.042 ± 0.0014
182 | AAGGACCGGC | 0.991 ± 0.057
183 | AAGGAGAGCT | 1.01 ± 0.054
184 | AAGGAGAGGG | 1 ± 0.096
185 | AAGGAGGATG | 0.995 ± 0.042
186 | AAGGAGGCAC | 0.985 ± 0.021
187 | AAGGAGGCAG | 1.03 ± 0.045
188 | AAGGAGGGCA | 0.984 ± 0.016
189 | AAGGATAATG | 0.976 ± 0.019
190 | AAGGATATCT | 0.988 ± 0.022
191 | AAGGATGTGG | 0.977 ± 0.021
192 | AAGGATTGCG | 0.96 ± 0.047
193 | AAGGATTTTT | 0.998 ± 0.03
194 | AAGGCAGGGG | 1.05 ± 0.044
195 | AAGGCAGGTT | 1.021 ± 0.0068
196 | AAGGCCAGCG | 0.953 ± 0.051
197 | AAGGCCAGGT | 1.17 ± 0.083
198 | AAGGCCGCGG | 0.997 ± 0.05
199 | AAGGCCGGAA | 1.04 ± 0.025
200 | AAGGCGAGCT | 0.992 ± 0.01
